These results are taken from patent US20140154256A1 (published 2014).

Like-named read-outs stand apart in the source and are kept apart here.

In test [1] the target is mouse IL-1β (mouse, UniProt P10749 118-269). Put plainly: cell-based or functional assay.
Test [2] addresses T1, mouse IL-1α (mouse, UniProt P01582 115-270).
T1 sequence (looked up): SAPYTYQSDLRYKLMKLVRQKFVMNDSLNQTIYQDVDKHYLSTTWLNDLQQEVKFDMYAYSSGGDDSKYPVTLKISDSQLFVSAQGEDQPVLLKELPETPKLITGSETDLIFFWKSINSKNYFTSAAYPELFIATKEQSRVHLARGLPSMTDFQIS
Put plainly: cell-based or functional assay.

The target of test [3] is T2, human IL-12 (human, UniProt P29459 23-219; P29460 23-328).
T2 sequence (looked up) 1: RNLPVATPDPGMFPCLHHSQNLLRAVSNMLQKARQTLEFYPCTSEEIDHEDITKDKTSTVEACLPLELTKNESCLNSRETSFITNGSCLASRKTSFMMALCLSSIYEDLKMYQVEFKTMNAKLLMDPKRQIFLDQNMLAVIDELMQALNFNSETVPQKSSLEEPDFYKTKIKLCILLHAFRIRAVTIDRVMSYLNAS
T2 sequence (looked up) 2: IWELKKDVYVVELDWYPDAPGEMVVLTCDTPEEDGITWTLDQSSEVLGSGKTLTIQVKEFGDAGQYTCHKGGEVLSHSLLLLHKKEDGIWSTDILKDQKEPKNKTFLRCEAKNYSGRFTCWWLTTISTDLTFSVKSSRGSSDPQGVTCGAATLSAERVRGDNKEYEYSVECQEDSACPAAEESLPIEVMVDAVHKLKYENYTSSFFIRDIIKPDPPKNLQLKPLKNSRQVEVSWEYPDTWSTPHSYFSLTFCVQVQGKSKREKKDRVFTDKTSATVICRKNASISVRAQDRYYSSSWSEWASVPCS
Put plainly: cell-based or functional assay.

The target in test [4] is T2, human IL-12. The test can be described thus: SPR (Biacore). Background: In SPR one partner is held on a chip, and binding of the other changes the refractive index at the surface.
Test [5] addresses T3, human CD20 on human B cell line Raji (human, UniProt P11836 1-297).
T3 construct: whole, on cells; also called hCD20
T3 sequence (looked up): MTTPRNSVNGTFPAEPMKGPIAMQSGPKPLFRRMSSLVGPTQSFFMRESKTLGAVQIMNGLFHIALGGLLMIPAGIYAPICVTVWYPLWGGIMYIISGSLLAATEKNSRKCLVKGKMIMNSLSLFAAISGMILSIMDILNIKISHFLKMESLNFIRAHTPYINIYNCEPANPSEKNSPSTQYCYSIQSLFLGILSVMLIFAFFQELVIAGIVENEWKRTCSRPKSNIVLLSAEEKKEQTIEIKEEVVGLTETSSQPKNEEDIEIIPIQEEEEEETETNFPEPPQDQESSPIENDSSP
Put plainly: flow cytometry staining of Raji B cells, FITC goat anti-murine IgG. The source says:
The anti-CD20/anti-CD3 DVD-Ig was generated as chimeric Ig i.e the constant region was a human constant region. For binding analysis, human T cell line Jurkat and B cell line Raji were blocked with human IgG and then stained with murine anti-hCD3 mAb OKT3, murine anti-hCD20 mAb 1F5, and anti-CD20/anti-CD3 DVD-Ig. Cells were then washed and stained with FITC-labeled goat anti-murine IgG (with no anti-hIgG cross-reactivity). Anti-CD20/CD3 DVD-Ig bound both T and B cells, whereas CD3 and CD20 mAbs bound only T or B cells, respectively. The amino acid sequence of CD20/CD3 DVD-Ig is disclosed in Table 25.
(In general: A flow cytometer gives signals particle by particle.)

For test [6], the target named is T4, human IL-18 (human, UniProt Q14116 37-193). Put plainly: cell-based or functional assay.
Test [7] has as its target T4, human IL-18. The test can be described thus: SPR (Biacore).
The target in test [8] is T4, human IL-18. The test can be described thus: SPR (Biacore). The source holds these as a separate data set.
Test [9] deals with T4, human IL-18. Put plainly: cell-based or functional assay. This is another data set of the same source.
Test [10] has as its target T4, human IL-18. The test can be described thus: cell-based or functional assay. This is another data set of the same source.
Test [11] deals with T4, human IL-18. The test can be described thus: SPR (Biacore). This is another data set of the same source.
The target in test [12] is T3, human CD20 on human B cell line Raji. The test can be described thus: preliminary cell surface binding study.
Test [13] has as its target T2, human IL-12. The test can be described thus: SPR (Biacore). This is another data set of the same source.
For test [14], the target named is T2, human IL-12. Put plainly: cell-based or functional assay. This is another data set of the same source.
Test [15] has as its target T2, human IL-12. Put plainly: cell-based or functional assay. This is another data set of the same source.
Test [16] has as its target T2, human IL-12. The test can be described thus: SPR (Biacore). The source holds these as a separate data set.

Chain of mouse IL-1β (P10749 118-269 limits assumed): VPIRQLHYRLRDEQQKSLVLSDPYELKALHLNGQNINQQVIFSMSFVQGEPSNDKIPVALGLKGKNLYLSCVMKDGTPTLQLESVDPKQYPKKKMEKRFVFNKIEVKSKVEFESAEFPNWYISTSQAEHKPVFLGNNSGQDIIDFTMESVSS

B1: mIL-1α/β DVD-Ig (bispecific antibody, mouse IgG2a, kappa)
heavy: EVQLQQSGPELVKPGTSVKMSCKTSGYTFTSYVMHWVKQKPGQGLEWIGYIIPYNDNTKYNEKFKGKATLTSDKSSSTAYMELSSLTSEDSAVYYCARRNEYYGSSFFDYWGQGTTLTVSSAKTTAPSVYPLAPQVILKESGPGILQPSQTLSLTCSFSGFSLSTYGTAVNWIRQPSGKGLEWLAQIGSDDRKLYNPFLKSRITLSEDTSNSQVFLKITSVDTEDSATYYCANGVMEYWGLGTSVTVSSAKTTAPSVYPLAPVCGDTTGSSVTLGCLVKGYFPEPVTLTWNSGSLSSGVHTFPAVLQSDLYTLSSSVTVTSSTWPSQSITCNVAHPASSTKVDKKIEPRGPTIKPCPPCKCPAPNLLGGPSVFIFPPKIKDVLMISLSPIVTCVVVDVSEDDPDVQISWFVNNVEVHTAQTQTHREDYNSTLRVVSALPIQHQDWMSGKEFKCKVNNKDLPAPIERTISKPKGSVRAPQVYVLPPPEEEMTKKQVTLTCMVTDFMPEDIYVEWTNNGKTELNYKNTEPVLDSDGSYFMYSKLRVEKKNWVERNSYSCSVVHEGLHNHHTTKSFSRTPGK
light: DIQMTQSPASLSASVGETVTITCRGSGILHNYLVWYQQKQGKSPQLLVYSAKILADGVPSRFSGSGSGTQYSLKINSLQPEDFGSYYCQHFWSTPFTFGSGTKLEIKRADAAPTVSIFPPSIVMTQTPKFLLVSAGDRVTITCKASQSVNHDVAWYQQMPGQSPKLLIYFASNRYTGVPDRFTGSGYGTDFTFTISTVQAEDLAVYFCQQDYSSPYTFGGGTKLEIKRADAAPTVSIFPPSSEQLTSGGASVVCFLNNFYPKDINVKWKIDGSERQNGVLNSWTDQDSKDSTYSMSSTLTLTKDEYERHNSYTCEATHKTSTSPIVKSFNRNEC
In the case of B1, the “IC50 (M), in vitro potency (assay not described)” value stood at 8e-10 M in test [1] and 2e-09 M in [2].

B2: anti-IL-12 mAb clone 1D4.1 (antibody, V domains shown)
VH: EVTLRESGPALVKPTQTLTLTCTFSGFSLSKSVMGVSWIRQPPGKALEWLAHIYWDDDKYYNPSLKSRLTISKDTSKNQVVLTMTNMDPVDTATYYCARRGIRSAMDYWGQGTTVTVSS
VL: DIVMTQSPDSLAVSLGERATINCKASQSVSNDVAWYQQKPGQPPKLLIYYASNRYTGVPDRFSGSGSGTDFTLTISSLQAEDVAVYYCQQDYNSPWTFGGGTKVEIKR
notes: Parent anti-IL-12 mAb
What is called Kd is the concentration at which binding is half-saturated. Lower therefore signals tighter binding. Turning to B2, the “Potency (IC50, M), PBMC assay (IL-12)” value in [3] is 4.18e-10 M. For the same molecule, in test [4], the Kd was determined as 0.12 nM.

B3: murine anti-human-CD20 mAb clone 5F1 (antibody, V domains shown)
VH: QVQLRQPGAELVKPGASVKMSCKASGYTFTSYNMHWVKQTPGQGLEWIGAIYPGNGDTSYNQKFKGKATLTADKSSSTAYMQLSSLTSEDSAVYYCARSHYGSNYVDYFDYWGQGTTLTVSS
VL: QIVLSQSPAILSASPGEKVTMTCRASSSLSFMHWYQQKPGSSPKPWIYATSNLASGVPARFSGSGSGTSYSLTISRVEAEDAATYFCHQWSSNPLTFGAGTKLELKR
notes: Murine mAb
For B3, the binding result in test [5] is reported as “binds”.

B4: ABT325 (fully human mAb against human IL-18) (antibody, V domains shown)
VH: EVQLVQSGTEVKKPGESLKISCKGSGYTVTSYWIGWVRQMPGKGLEWMGFIYPGDSETRYSPTFQGQVTISADKSFNTAFLQWSSLKASDTAMYYCARVGSGWYPYTFDIWGQGTMVTVSS
VL: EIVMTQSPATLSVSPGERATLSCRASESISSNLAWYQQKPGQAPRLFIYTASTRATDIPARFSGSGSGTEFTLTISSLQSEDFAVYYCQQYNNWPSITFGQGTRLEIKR
notes: Fully human mAb with a Vκ
In the case of B4, in test [6], the “Potency (IC50, M), KG-1 bioassay (IL-18)” value was determined as 6.87e-11 M. For the same molecule, the Kd in test [7] came to 0.191 nM; in test [8], 0.137 nM; in [11], 0.137 nM. For the same molecule, in test [9], the “Potency (IC50), KG-1 Assay” value stood at 0.3 nM. Also, in [10], the “IC50 (M), KG-1 bioassay (IFN-γ production)” value was found to be 3e-10 M.

B5: anti-CD20/anti-CD3 DVD-Ig (CD20CD3DVD-Ig) (bispecific antibody, human IgG1, kappa)
heavy: not shown
light: QIVLSQSPAILSASPGEKVTMTCRASSSLSFMHWYQQKPGSSPKPWIYATSNLASGVPARFSGSGSGTSYSLTISRVEAEDAATYFCHQWSSNPLTFGAGTKLELKRADAAPTVSIFPPQIVLTQSPAIMSASPGEKVTMTCSASSSVSYMNWYQQKSGTSPKRWIYDTSKLASGVPAHFRGSGSGTSYSLTISGMEAEDAATYYCQQWSSNPFTFGSGTKLEINRTVAAPSVFIFPPSDEQLKSGTASVVCLLNNFYPREAKVQWKVDNALQSGNSQESVTEQDSKDSTYSLSSTLTLSKADYEKHKVYACEVTHQGLSSPVTKSFNRGEC
notes: VCD20-linker-VCD3-constant; chimeric Ig with human constant region; also called Anti-CD20/CD3 DVD-Ig
As for B5, in test [12], the binding result is given as “binds”.

B6: ABT874 (fully human mAb against human IL-12p40) (antibody, V domains shown)
VH: QVQLVESGGGVVQPGRSLRLSCAASGFTFSSYGMHWVRQAPGKGLEWVAFIRYDGSNKYYADSVKGRFTISRDNSKNTLYLQMNSLRAEDTAVYYCKTHGSHDNWGQGTMVTVSS
VL: QSVLTQPPSVSGAPGQRVTISCSGSRSNIGSNTVKWYQQLPGTAPKLLIYYNDQRPSGVPDRFSGSKSGTSASLAITGLQAEDEADYYCQSYDRYTHPALLFGTGTKVTVLG
notes: Fully human mAb with a Vλ
Consider B6, for which the figures for the Kd in [13] and in [16] were 0.0647 nM and 0.065 nM, respectively. For the same molecule, in test [14], the “Potency (IC50), PHA-Blast Assay” value is 0.005 nM. Moreover, the “IC50 (M), IL-12-induced IFN-γ production by PHA blast cells (PBMC assay)” value in test [15] was found to be 5e-12 M.
